Reference: doi:10.1101/2024.01.24.577054 (bioRxiv, 2024)

Target: the molecule itself
Assay: FRET or BRET

B1: BmrA, homodimeric multi-drug resistance ABC exporter from B. subtilis (His-C-ter-BmrA), labelled with sulfo-Cy3/sulfo-Cy5 (natural protein, UniProt O06967 1-589, looked up)
chain: MPTKKQKSKSKLKPFFALVRRTNPSYGKLAFALALSVVTTLVSLLIPLLTKQLVDGFSMSNLSGTQIGLIALVFFVQAGLSAYATYALNYNGQKIISGLRELLWKKLIKLPVSYFDTNASGETVSRVTNDTMVVKELITTHISGFITGIISVIGSLTILFIMNWKLTLLVLVVVPLAALILVPIGRKMFSISRETQDETARFTGLLNQILPEIRLVKASNAEDVEYGRGKMGISSLFKLGVREAKVQSLVGPLISLVLMAALVAVIGYGGMQVSSGELTAGALVAFILYLFQIIMPMGQITTFFTQLQKSIGATERMIEILAEEEEDTVTGKQIENAHLPIQLDRVSFGYKPDQLILKEVSAVIEAGKVTAIVGPSGGGKTTLFKLLERFYSPTAGTIRLGDEPVDTYSLESWREHIGYVSQESPLMSGTIRENICYGLERDVTDAEIEKAAEMAYALNFIKELPNQFDTEVGERGIMLSGGQRQRIAIARALLRNPSILMLDEATSSLDSQSEKSVQQALEVLMEGRTTIVIAHRLSTVVDADQLLFVEKGEITGRGTHHELMASHGLYRDFAEQQLKMNADLENKAG
modifications: sulfo-Cy3 or sulfo-Cy5 maleimide dye on C436 (the sole Cys residue of each monomer)
**Q.** Does B1 bind?
**A.** binds
